FireProtDB (doi:10.1021/bi00369a002)
Values joined by “and” are separate entries in the source; they are usually repeats but may differ in a detail not shown here. Identical values can stand only once.

B1: Tryptophan synthase alpha chain, P0A877 (parent)
chain: MERYESLFAQLKERKEGAFVPFVTLGDPGIEQSLKIIDTLIEAGADALELGIPFSDPLADGPTIQNATLRAFAAGVTPAQCFEMLALIRQKHPTIPIGLLMYANLVFNKGIDEFYAQCEKVGVDSVLVADVPVEESAPFRQAALRHNVAPIFICPPNADDDLLRQIASYGRGYTYLLSRAGVTGAENRAALPLNHLVAKLKEYNAAPPLQGFGISAPDQVKAAIDAGAAGAISGSAIVKIIEQHINEPEKMLAALKVFVQPMKAATRS

Variants of: B1
Conditions: Escherichia coli (strain K12); pH 7.8; 25 °C; Urea; Absorbance; Potassium phosphate 10 mM; transition: 3; structure 1WQ5; whole UniProt chain shown

Variant | ddG of mutation (higher = less stable) | denaturant m value | denaturant midpoint (higher = more stable)
Y175C G211E | 1.3 kcal/mol and 1 kcal/mol | 3 kcal/mol/M and 1.4 kcal/mol/M | 2.2 M and 3.49 M
Y175C | – | 3 kcal/mol/M and 1.1 kcal/mol/M | 2.58 M and 3.71 M
G211E | – | 3 kcal/mol/M and 1.5 kcal/mol/M | 2.73 M and 3.72 M
